Assay results from US20210130470A1 (MacroGenics, published 2021).

Legend:
[1] = biological target: T1, hPD-1-His (human, UniProt Q15116 25-170, limits assumed); test: ELISA, hPD-1-His (1 ug/mL) coated, goat anti-human-Fc-HRP detection
T1 construct: also called His-tagged soluble human PD-1; shPD-1
Description: FIGS. 8A-8D show the results of ELISA studies measuring the binding of serially diluted binding molecules to human CTLA-4 and human PD-1. […] Goat anti-human-Fc-HRP (1:10,000) was employed as the secondary detection molecule to detect binding. FIGS. 8C-8D show the results of a study on the effect of altering orientations and binding domains on binding. […] Goat anti-human-Fcγ-HRP was employed as the secondary detection molecule to detect binding using PICO chemiluminescent substrate.
Goat anti-human-Fc-HRP (1:10,000) was employed as the secondary detection molecule to detect binding.

[2] = biological target: T2, PD-1 expressed on the cell surface (human, UniProt Q15116 21-288); test: cell-based competition (FACS): blocked ligand PD-L1-PE binding to NSO-PD-1 cells, MFI
T2 construct: also called NSO cells expressing PD-1; NSO-PD-1 cells

[3] = biological target: T2, PD-1 expressed on the cell surface; test: cell-based competition (FACS): blocked ligand PD-L2-PE binding to NSO-PD-1 cells, MFI
[4] = biological target: T3, human CTLA-4 expressed on the cell surface (human, UniProt P16410 36-223); test: flow cytometry (FACS) on Jurkat cells expressing huCTLA-4 but not PD-1, anti-human Fc secondary antibody, MFI
T3 construct: also called huCTLA-4; CHO cells expressing human CTLA-4
T3 sequence: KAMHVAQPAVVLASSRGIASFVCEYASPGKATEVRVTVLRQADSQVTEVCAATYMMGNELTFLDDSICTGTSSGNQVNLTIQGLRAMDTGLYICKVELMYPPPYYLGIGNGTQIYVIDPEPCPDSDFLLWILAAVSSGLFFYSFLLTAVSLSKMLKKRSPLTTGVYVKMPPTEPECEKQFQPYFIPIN
Description: Binding of the DART and TRIDENT molecules to human CTLA-4 was detected using anti-human FC secondary Ab (FACS).

[5] = biological target: T1, hPD-1-His; test: BIACORE, binder captured on F(ab)2 goat anti-human Fc, His-tagged soluble human PD-1 passed over at 6.25-100 nM; Langmuir 1:1 fit
[6] = biological target: T1, hPD-1-His; test: competition ELISA: plate coated with shPD-1 and shCTLA-4 1:1 (2 ug/ml each); blocked ligand biotin-labeled PD-L1 6 ug/ml, streptavidin-HRP, RLU
Protocol: (§1) A series of ELISA assays were conducted to evaluate the ability of bispecific molecules of the invention to block ligand binding to PD-1 and […], alone and in combination. […] Plates were coated with a 1:1 mix of His-tagged soluble human PD-1 (shPD-1) and a His-tagged irrelevant antigen (irrAg) (2 μg/ml each), or a 1:1 mix of shPD-1 and a His-tagged soluble human CTLA-4 (shCTLA-4) (2 μg/ml each).

[7] = biological target: T1, hPD-1-His; test: competition ELISA: plate coated with shPD-1 and irrelevant antigen 1:1 (2 ug/ml each); blocked ligand biotin-labeled PD-L1 6 ug/ml, streptavidin-HRP, RLU
Protocol: as §1

B1: PD-1 mAb 6 G4P (antibody, human IgG4 S228P, kappa, V domains shown)
VH: QVQLVQSGAEVKKPGASVKVSCKASGYSFTSYWMNWVRQAPGQGLEWIGVIHPSDSETWLDQKFKDRVTITVDKSTSTAYMELSSLRSEDTAVYYCAREHYGTSPFAYWGQGTLVTVSS
VL: EIVLTQSPATLSLSPGERATLSCRASESVDNYGMSFMNWFQQKPGQPPKLLIHAASNQGSGVPSRFSGSGSGTDFTLTISSLEPEDFAVYFCQQSKEVPYTFGGGTKVEIKR
notes: IgG4 with stabilized hinge, kappa; VH/VL of PD-1 mAb 6-ISQ; also called the PD-1 antibody; parental anti-PD-1 antibody
[1]
  EC50: 300 pM
[2]
  IC50 (read off the curve): ~500 pM
[3]
  IC50 (read off the curve): ~500 pM
[4]
  binding result: no binding (tested: about 100 nM)
[5]
  Kd: 1100 pM
[6]
  IC50 (read off the curve): ~700 pM
[7]
  IC50 (read off the curve): ~800 pM
